A short description of the data set: soluble on expression in E. coli; label from the status in PepcDB or PDB records.
In the case of “MGSDKIHHHHHHMVKWYKTYLEVYGKSFDEISDDSIRKVKRQLKERQNDSPLVSVVLIAHNEERHLISCIWSLSENHCHFPIEIIAVNNNSTDKTEEILKSLGVTYYNETKKGPGYARQCGLDHAKGKYHICIDADTLYPPHYIETHVKYLMNPKVACTFSLWSFMVDERHSRFGLWCYEGLRDIYLRLQAIQRPELCVRGMAFSFNTEIGRRFGFRTDIIRGEDGSLALAMKPYGKIVFITSRKARVLTSNGTLNSEGSLIDNIWIRVIKALKEITGLFIKKTAYKDKDSNLIK”, the “soluble on expression in E. coli” value was “not soluble”.

For the sequence “MNTTLFRWPVRVYYEDTDAGGVVYHASYVAFYERARTEMLRHHHFSQQALMAERVAFVVRKMTVEYYAPARLDDMLEIQTEITSMRGTSLVFTQRIVNAENTLLNEAEVLVVCVDPLKMKPRALPKSIVAEFKQ”, the “soluble on expression in E. coli” value is on record as “soluble”.

In the case of “MKLQKQLLEAVEHKQLRPLDVQFALTVAGDEHPAVTLAAALLSHDAGEGHVCLPLSRLENNEASHPLLATCVSEIGELQNWEECLLASQAVSRGDEPTPMILCGDRLYLNRMWCNERTVARFFNEVNHAIEVDEALLAQTLDKLFPVSDEINWQKVAAAVALTRRISVISGGPGTGKTTTVAKLLAALIQMADGERCRIRLAAPTGKAAARLTESLGKALRQLPLTDEQKKRIPEDASTLHRLLGAQPGSQRLRHHAGNPLHLDVLVVDEASMIDLPMMSRLIDALPDHARVIFLGDRDQLASVEAGAVLGDICAYANAGFTAERARQLSRLTGTHVPAGTGTEAASLRDSLCLLQKSYRFGSDSGIGQLAAAINRGDKTAVKTVFQQDFTDIEKRLLQSGEDYIAMLEEALAGYGRYLDLLQARAEPDLIIQAFNEYQLLCALREGPFGVAGLNERIEQFMQQKRKIHRHPHSRWYEGRPVMIARNDSALGLFNGDIGIALDRGQGTRVWFAMPDGNIKSVQPSRLPEHETTWAMTVHKSQGSEFDHAALILPSQRTPVVTRELVYTAVTRARRRLSLYADERILSAAIATRTERRSGLAALFSSRE”, the “soluble on expression in E. coli” value was “soluble”.

For the sequence “MTENALLLLNLGSPDSTRVEDVRRYLDQFLMDPYVVDLPWPLRRLLVSLILIKRPAESAHAYSSIWWDEGSPLIVLSRRLQEAMKPHWPHGPVELAMRYGQPAIEKVLLDLARRGIRRVTLAPLYPQFADSTTTTAEQEVRRVIAAHRLGLEVSTLPPFYDQPVYLDALVESVRPYLQQPHDHLLLSFHGLPERHIRKLVKDPAHDLLAENSRNVSPEALALCYRSQCLRTAEAFAERAGLEQGRWSVSFQSRLGRAKWIEPYTDAKLDELVQRGVKRLLVMCPAFVADCIETLEEIGMRGREQFISAGGEDLVLIPCLNDHPAWVGALAEMSGRLARPL”, the “soluble on expression in E. coli” value was “not soluble”.

As for “MGSDKIHHHHHHMTNETTTSILEYADTHLKFSMEDLFAYLHKKIGINKSSLAWYLFKLVNENKLVRTGRGMYARILKPSFAPQPAEEVKEVYDLLTTHFPFAKFCIYQGEIIAPLQHHLSPNRIIYVETDRGTAETVFHLLKDDYQDVYLRPNKEMIYRYVDMDSRVFIVKNLVSEAPLQHISGVPIPTLEKLLVDILRDVDFFYLQGSESERIIENAFNLYAINRSRLFRYAGRRKVKEELSTILENLNIV”, the “soluble on expression in E. coli” value is on record as “not soluble”.

On to “YNPLYSIENATSRRDTVLQNMVAAGKISQKQANEAKKVGMGNRISDTYVAKTDDYQYPSYFDAVISEASSVYGISEKDIVNNGY”, for which the “soluble on expression in E. coli” value was “not soluble”.

Consider “MLFLDSVAMKEKPEGREEYPFSVPAMRHLERLEFKTPITFFAGNNGSGKSTLLEGLAAGMTAYAIGNHGDVKGDLYLQHAETVAKAFYFARKKYPKIRMFLRAEDVLGYIRRQNENALDDFRWEREKALKKGEDFPEETPEIFRGIVRNNSLDRRSHGEGFLDIMHRRLHGAGLYFLDEPESPLSPQKQLELAAIIRQAADSGGQLIIATHSPVLLAIPEATIYYFDEDGITERLYDELENIAFLRRFLDRPSKYLDDLEHHHHHH”, for which the “soluble on expression in E. coli” value was “soluble”.

On to “PKIENPILIEGYPGIGLVGHIAANFLAKELKMEVIGYVESSFIPPMSLILEGKPNPPLRFYGKDNIIIAVADIYLPPTLINEIAKEIANYLEQNKAEKVISLGGMGIGIFKDKFEVWGVGGTEEENKELQDLGVKILEYGSISGMSGKLLWEASRRGLKSYVILGETFGDRPDPRAAANVVEVLDRMLTLNVSVEPLLKEAEMIEEQLRKMHEQMEKARRSVEKQYETMYL”, for which the “soluble on expression in E. coli” value was “not soluble”.

Take “MLRFFIQPQLNTIVDSVIGYEMLIKEYRDGTWRMPASFSAIPAHDMAELLIATAKELSLKVGSVSFNVDRNQILDDQLIHALIAAQTVLRPVKLIIELIENDVKPSVSDEQLIEVVTQLNDFGIQFCLDDVGSGINTWPAVKPLLPYTRELKYALQNYKEHLNESAAENHVTFWQNLATKHQMRFILEGIEDDNDDAWADSMNIDLRQGYYYGRP”: the “soluble on expression in E. coli” value is listed as “not soluble”.

For the sequence “MKKWWLAAVVAMIAVGGCAKEETEQKQSLQGANLLRTQTSGTAKHAELNQGPAERAASYLRGRDDVRDVVAVNSEDRLLIAYQIPHMKRWSRKQIEKDIDQKLRDLFPGYDVVSSSDLKIFWKTKELKANMDNRRWDERKVNREIRRIEKLSKEQT”, the “soluble on expression in E. coli” value was “not soluble”.

Turning to “MGSDKIHHHHHHMMSDEKNLGVSQKLVSPSRSTSSCSSKQGSRQDSWEVVEGLRGEMNYTQEPPVQKGFLLKKRKWPLKGWHKRFFYLDKGILKYAKSQTDIEREKLHGCIDVGLSVMSVKKSSKCIDLDTEEHIYHLKVKSEEVFDEWVSKLRHHRMYRQNEIAMFPHEVNHFFSGSTITDSSSGVFDSISSRKRSSISKQNLFQTGSNVSFSCGGETRVPLWLQSSEDMEKCSKDLAHCHAYLVEMSQLLQSMDVLHRTYSAPAINAIQGGSFESPKKEKRSHRRWRSRAIGKDAKGTLQVPKPFSGPVRLHSSNPNLSTLDFGEEKNYSDGSETSSEFSKMQEDLCHIAHKVYFTLRSAFNIMSAEREKLKQLMEQDASSSPSAQVIGLKNALSSALAQNTDLKERLRRIHAESLLLDSPAVAKSGDNLAEENSRDENRALVHQLSNESRLSITDSLSEFFDAQEVLLSPSSSENEISDDDSYVSDISDNLSLDNLSNDLDNERQTLGPVLDSGREAKSRRRTCLPAPCPSSSNISLWNILRNNIGKDLSKVAMPVELNEPLNTLQRLCEELEYSELLDKAAQIPSPLERMVYVAAFAISAYASSYYRAGSKPFNPVLGETYECIREDKGFQFFSEQVSHHPPISACHAESRNFVFWQDVRWKNKFWGKSMEIVPIGTTHVTLPVFGDHFEWNKVTSCIHNILSGQRWIEHYGEIVIKNLHDDSCYCKVNFIKAKYWSTNAHEIEGTVFDRSGKAVHRLFGKWHESIYCGGGSSSACVWRANPMPKGYEQYYSFTQFALELNEMDPSSKSLLPPTDTRFRPDQRFLEEGNLEEAEIQKQRIEQLQRERRRVLEENHVEHQPRFFRKSDDDSWVSNGTYLELRKDLGFSKLDHPVLW”, the “soluble on expression in E. coli” value is reported as “not soluble”.

“MSLTPATQPLINAEPAVAAQTEQNPQVGQVMPGVQGADAPVVAQNGPSRDVKLTFAQIAPPPGSMVLRGINPNGSIEFGMRSDEVVTKAMLNLEYTPSPSLLPVQSQLKVYLNDELMGVLPVTKEQLGKKTLAQMPINPLFITDFNRVRLEFVGHYQDVCENPASTTLWLDVGRSSGLDLTYQTLNVKNDLSHFPVPFFDPRDNRTNTLPMVFAGAPDVGLQQASAIVASWFGSRSGWRGQNFPVLYNQLPDRNAIVFATNDKRPDFLRDHPAVKAPVIEMINHPQNPYVKLLVVFGRDDKDLLQAAKGIAQGNILFRGESVVVNEVKPLLPRKPYDAPNWVRTDRPVTFGELKTYEEQLQSSGLEPAAINVSLNLPPDLYLMRSTGIDMDINYRYTMPPVKDSSRMDISLNNQFLQSFNLSSKQEANRLLLRIPVLQGLLDGKTDVSIPALKLGATNQLRFDFEYMNPMPGGSVDNCITFQPVQNHVVIGDDSTIDFSKYYHFIPMPDLRAFANAGFPFSRMADLSQTITVMPKTPNEAQMETLLNTVGFIGAQTGFPAINLTVTDDGSTIQGKDADIMIIGGIPDKLKDDKQIDLLVQATESWVKTPMRQTPFPGIVPDESDRAAETQSTLTSSGAMAAVIGFQSPYNDQRSVIALLADSPRGYEMLNDAVNDSGKRATMFGSVAVIRESGINSLRVGDVYYVGHLPWFERLWYALANHPILEGHHHHHH”: the “soluble on expression in E. coli” value is given as “soluble”.

The values above are taken from the DeepSol protein solubility set.
